Data reported in patent US20120189639A1 (Merck Sharp & Dohme, published 2012).

T1: hGITR-hIgG (human, UniProt Q9Y5U5 26-161, limits assumed)
T1 construct: not shown: human IgG part of the fusion
T1 sequence: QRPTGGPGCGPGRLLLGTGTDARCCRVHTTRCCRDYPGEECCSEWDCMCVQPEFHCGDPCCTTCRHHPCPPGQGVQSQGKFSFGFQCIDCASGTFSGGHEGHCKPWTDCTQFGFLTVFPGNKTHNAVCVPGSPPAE

T2: human GITR on naïve CD4+ T cells (human, UniProt Q9Y5U5 26-241)
T2 sequence: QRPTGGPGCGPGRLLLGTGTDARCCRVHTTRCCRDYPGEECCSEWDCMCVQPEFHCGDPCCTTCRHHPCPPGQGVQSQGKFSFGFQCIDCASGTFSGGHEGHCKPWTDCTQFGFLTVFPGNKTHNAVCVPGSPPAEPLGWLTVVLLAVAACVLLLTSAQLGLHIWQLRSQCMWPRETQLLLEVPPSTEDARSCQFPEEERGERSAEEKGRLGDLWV


Experiments:
hGITR-hIgG [1] = target: T1, hGITR-hIgG; experiment: BIAcore SPR; hGITR-hIgG capture antigen, mAb analyte
Description: (§1) BIAcore determinations are performed essentially as described at Example 4 of co-pending, commonly assigned U.S. patent application Ser. No. 11/511,635 (filed 29 Aug. 2006). Briefly, binding partners are immobilized on a BIAcore CM5 sensor chip using standard amine-coupling procedure. Kinetic constants for the various interactions are determined using BIAevaluation software 3.1. The Kd is determined using the calculated dissociation and association rate constants.

[2] = target: T2, human GITR on naïve CD4+ T cells; experiment: cell-based or functional assay
hGITR-hIgG [3] = target: T1, hGITR-hIgG; experiment: BIAcore SPR; hGITR-hIgG capture antigen, mAb analyte; apparent Kd
Description: as §1

[4] = target: T2, human GITR on naïve CD4+ T cells; experiment: cell-based or functional assay; remark: listed apart in the source

Row | Binder | koff (hGITR-hIgG [1]) [s⁻¹] | kon (hGITR-hIgG [1]) [M⁻¹ s⁻¹] | proliferation of naïve CD4+ T cells, mean, at 0.4 ng/mL Ab [2] | proliferation of naïve CD4+ T cells, mean, at 0.9 ng/mL Ab [2] | proliferation of naïve CD4+ T cells, mean, at 2.2 ng/mL Ab [2] | proliferation of naïve CD4+ T cells, mean, at 5.2 ng/mL Ab [2] | proliferation of naïve CD4+ T cells, mean, at 12.6 ng/mL Ab [2] | proliferation of naïve CD4+ T cells, mean, at 30.1 ng/mL Ab [2] | proliferation of naïve CD4+ T cells, mean, at 72.3 ng/mL Ab [2] | proliferation of naïve CD4+ T cells, mean, at 173.6 ng/mL Ab [2] | proliferation of naïve CD4+ T cells, mean, at 416.7 ng/mL Ab [2] | proliferation of naïve CD4+ T cells, mean, at 1000.0 ng/mL Ab [2] | Kd (hGITR-hIgG [3]) [nM] | also measured
1 | 17F10 (antibody, V domains shown, Parental rodent anti-human GITR monoclonal antibody from a hybridoma; kappa VL; also called 17F10.B1) VH: EVKLVESGGGFVKPGGSLKLSCAASGFTVRNYAMSWVRQTPEKRLEWVASISTGDRSYLPDSMKGRFTISRDNARNILYLQMSSLRSEDTAIYYCQRYFDFDSFAFWGQGTLVTVSA VL: DIQMTQTPSSLSASLGDRVTISCRASQDINNFLNWYQQKPDGSLKLLIYYTSKLHSGVPSRFSGSGSGTDFSLTISNLDQEDVATYFCQQGHTLPPTFGGGTKLEVKR | 0.000146 | 1.31e+06 | 58700 | 62000 | 73400 | 77800 | 90200 | 87000 | 83500 | 87500 | 85700 | 89400 | 0.111 | 
2 | 36E5 (antibody, V domains shown, Parental rodent anti-human GITR monoclonal antibody from a hybridoma; kappa VL; also called 36E5.A5) VH: EVNLVESGGGLVKPGGSLKVSCAASGFTFSSYAMSWVRQTPEKRLEWVASISSGGTTYYPDSVKGRFTISRDNARNILYLQMSSLRSEDTAMYYCARVGGYYDSMDYWGQGISVTDSS VL: not shown | 0.000177 | 864000 |  |  |  |  |  |  |  |  |  |  | 0.205 | proliferation of naïve CD4+ T cells, mean, at 0.04 ng/mL Ab [4]: 27500; proliferation of naïve CD4+ T cells, mean, at 0.15 ng/mL Ab [4]: 26200; proliferation of naïve CD4+ T cells, mean, at 0.61 ng/mL Ab [4]: 31000; proliferation of naïve CD4+ T cells, mean, at 2.4 ng/mL Ab [4]: 47500; proliferation of naïve CD4+ T cells, mean, at 9.8 ng/mL Ab [4]: 78700; proliferation of naïve CD4+ T cells, mean, at 39.1 ng/mL Ab [4]: 90300; proliferation of naïve CD4+ T cells, mean, at 156 ng/mL Ab [4]: 97100; proliferation of naïve CD4+ T cells, mean, at 625 ng/mL Ab [4]: 82100; proliferation of naïve CD4+ T cells, mean, at 2500 ng/mL Ab [4]: 71800; proliferation of naïve CD4+ T cells, mean, at 10000 ng/mL Ab [4]: 83800
3 | 9E5 (antibody, V domains shown, Parental rodent anti-human GITR monoclonal antibody from a hybridoma; kappa VL; also called 9E5.C1) VH: QVTLKESGPGILQPSQTLSLTCTFSGFSLSTYGVGVGWIRQPSGKGLEWLANIWWDDDNYYNPSLIHRLTVSKDTSNNQAFLKITNVDTAETATYYCAQIKEPRDWFFEFWGPGTMVSVSS VL: DIQMTQTPSSMPASLGERVTIFCRASQGVNNFLTWYQQKPDGTIKPLIFYTSNLQSGVPSRFSGSGSGTDYSLSISSLEPEDFAMYYCQQYHGFPNTFGAGTKLELKR | 2.7e-05 | 2.33e+06 | 60100 | 60900 | 69200 | 77700 | 85700 | 83400 | 85300 | 84600 | 79700 | 83600 | 0.012 | 
4 | 31H6 (antibody, V domains shown, Parental rodent anti-human GITR monoclonal antibody from a hybridoma; kappa VL; also called 31H6.B7) VH: QVTLKESGPGILQPSQTLSLTCTFSGFSLSTYGVGVGWIRQPSGKGLEWLANIWWDDDKYYNPSLKNRLTISKDTSNNQAFLKITNVDTAETATYYCAQIKEPRDWFFEFWGPGTMVSVSS VL: DIQMTQTPSSMPASLGERVTIFCRASQGVNNYLTWYQQKPDGTIKPLIFYTSNLQSGVPSRFSGSGSGTDYSLSISSLEPEDFAMYYCQQYHGFPNTFGAGTKLELKR | 7e-06 | 1.57e+06 | 58500 | 57000 | 67600 | 79600 | 90500 | 94700 | 98600 | 96900 | 86900 | 87500 | ≤ 0.005 | 

More lines, main results first:

Row | koff (hGITR-hIgG [1]) [s⁻¹] | kon (hGITR-hIgG [1]) [M⁻¹ s⁻¹] | proliferation of naïve CD4+ T cells, mean, at 0.4 ng/mL Ab [2] | proliferation of naïve CD4+ T cells, mean, at 0.9 ng/mL Ab [2] | proliferation of naïve CD4+ T cells, mean, at 2.2 ng/mL Ab [2] | proliferation of naïve CD4+ T cells, mean, at 5.2 ng/mL Ab [2] | proliferation of naïve CD4+ T cells, mean, at 12.6 ng/mL Ab [2] | proliferation of naïve CD4+ T cells, mean, at 30.1 ng/mL Ab [2] | proliferation of naïve CD4+ T cells, mean, at 72.3 ng/mL Ab [2] | proliferation of naïve CD4+ T cells, mean, at 173.6 ng/mL Ab [2] | proliferation of naïve CD4+ T cells, mean, at 416.7 ng/mL Ab [2] | proliferation of naïve CD4+ T cells, mean, at 1000.0 ng/mL Ab [2] | Kd (hGITR-hIgG [3]) [nM] | Binder | also measured
5 | 0.0002 | 801000 | 52300 | 50700 | 59800 | 71400 | 86200 | 95300 | 92400 | 96200 | 89800 | 97300 | 0.25 | 35D8 (antibody, V domains shown, Parental rodent anti-human GITR monoclonal antibody from a hybridoma; kappa VL; also called 35D8.B10) VH: EVQLQESGPSLVKPSQTLSLTCSVTGDSITSGYWNWIRKFPGNKLEYMGYISYSGSTYYNPSLRGRISITRDTSKSQYYLQLSSVTTEDTATYYCSRRHLGSGYGWFAYWGQGTLVTVSA VL: DIVMTQSHKFMSTSVGDRVSITCKASQDVNTAVAWYQQKPGQSPKLLIYWASTRHTGVPDRFTGSGSGTDYALTINSVQAEDLALYYCQQHSYTPPWTFGGGTKLEIRR | 
6 | 0.000318 | 478000 | 54300 | 54100 | 61100 | 72200 | 86000 | 95500 | 96100 | 93600 | 86300 | 78000 | 0.665 | 49A1 (antibody, V domains shown, Parental rodent anti-human GITR monoclonal antibody from a hybridoma; kappa VL; also called 49A1.B1) VH: EVQLQESGPSLVKPSQTLSLTCSVTGDSITSGYWNWIRKFPGNKFEYMGFISYSGNTYYNPSLRSRISITRDTSKNQYFLHLNSVTTEDTATYYCSRRHLISGYGWFAYWGQGTLVTVSA VL: VIVMTQSHKFMSTSIGDRVNITCKASQDVISAVAWYQQKPGQSPKLLIYWASTRHTGVPDRFTGSGSGTDFTLTINSVQAEDRALYYCQQHSYTPPWTFGGGTNLEIKR | 
7 | 0.0135 | 1.11e+06 |  |  |  |  |  |  |  |  |  |  | 12.2 | 61F6 (antibody, V domains shown, Parental rodent anti-human GITR monoclonal antibody from a hybridoma; kappa VL; also called 61F6.B9; hybridoma PTA-9893) VH: QVQLQQSGAELARPGASVKMSCKASGYTFTSYTMHWVKQRPGQGLEWIGYINPRSVYTNYNQKFKDKATLTADKSSSTAYMQLSSLTSEDSAVYYCARLGGYYDTMDYWGQGTSVTVSS VL: not shown | proliferation of naïve CD4+ T cells, mean, at 0.04 ng/mL Ab [4]: 34900; proliferation of naïve CD4+ T cells, mean, at 0.15 ng/mL Ab [4]: 32000; proliferation of naïve CD4+ T cells, mean, at 0.61 ng/mL Ab [4]: 37600; proliferation of naïve CD4+ T cells, mean, at 2.4 ng/mL Ab [4]: 61300; proliferation of naïve CD4+ T cells, mean, at 9.8 ng/mL Ab [4]: 96300; proliferation of naïve CD4+ T cells, mean, at 39.1 ng/mL Ab [4]: 107000; proliferation of naïve CD4+ T cells, mean, at 156 ng/mL Ab [4]: 108000; proliferation of naïve CD4+ T cells, mean, at 625 ng/mL Ab [4]: 105000; proliferation of naïve CD4+ T cells, mean, at 2500 ng/mL Ab [4]: 96300; proliferation of naïve CD4+ T cells, mean, at 10000 ng/mL Ab [4]: 93400
8 | 0.000196 | 428000 | 60800 | 64800 | 78500 | 98200 | 115000 | 112000 | 103000 | 91000 |  |  | 0.458 | 1D8 (antibody, V domains shown, Parental rodent anti-human GITR monoclonal antibody from a hybridoma; kappa VL; also called 1D8.B5) VH: QVTLKESGPGILKPSQTLSLTCSFSGFSLSTSGMGVGWIRQPSGKGLEWLAHIWWDDDKYYSPSLKSQLTISKDTSRNQVFLKITSLDTADTATYYCVRSYYYGSSGAMDYWGQGTSVTVSS VL: DIVMTQTPLSLPVSLGDQASISCRSSQSLVHSDGNTYLHWYLQKPGQSPKLLIYKVSKRFSGVPDRFSGSGSGTDFTLKISRVEAEDLGVYFCSQSTHVPPTFGGGTKLEIKR | 
